Columns and labels:
G-CSFR expression = G-CSFR expression in EBs derived from ES cells treated with Noggin (RT-PCR, immunostaining); type: cell-based, mouse
Experimental: (§1) In the experiments described below, EB3 cells (kindly provided by Dr. Hitoshi Niwa of Riken, Japan) and R1 cells (kindly provided by Dr. Andrew Nagy of Mount Sinai Hospital, Canada) were used as ES cells. These ES cells were maintained on gelatin-coated plates in Glasgow Minimum Essential Medium (GMEM; Sigma) containing 10% fetal bovine serum, 2 mM L-glutamine, 0.1 mM nonessential amino acid solution, 1 mM sodium pyruvate, 0.1 mM 2-mercaptoethanol and 2000 U/mL leukemia inhibitory factor (LIF) (ESGRO; Chemicon).
Suspension culture was performed as follows to form EBs from ES cells. ES cells were cultured for 3 days on gelatin-coated plates in α-MEM medium containing 10% fetal bovine serum, 2 mM L-glutamine, 0.1 mM nonessential amino acid solution, 1 mM sodium pyruvate, 0.1 mM 2-mercaptoethanol, 2000 U/mL leukemia inhibitory factor and 0.15 μg/ml Noggin (Noggin-Fc, R&D). The ES cells were then dispersed into single cells by treatment with a trypsin solution, and further cultured on uncoated Petri dishes using a three-dimensional culture system in the same differentiation medium as used above (except being free from LIF) to form spheroids, from which EBs (embryoid bodies) were induced. […]

human ES cells = human ES cells treated with 5-azacytidine; rises from 15%; cited from earlier work
cardiomyocyte markers [1] = assay: Expression of cardiomyocyte markers in ES cell-derived EBs (RT-PCR, immunostaining); type: cell-based, mouse
Source text: Next, EBs at day 9 were used and analyzed for the expression of various cardiomyocyte-specific genes by RT-PCR and immunostaining. The cardiomyocyte markers used in RT-PCR were Tbx-5, MEF-2c (muscle enhancement factor-2c), Nkx2.5, GATA-4, βMHC (β myosin heavy chain), MLC-2v (myosin light chain-2v), αMHC (α-myosin heavy chain), BNP (brain natriuretic peptide), ANP (atrial natriuretic peptide) and GAPDH (glyceraldehyde-3-phosphate dehydrogenase). The cardiomyocyte markers used in immunostaining were α-actinin, actin, troponin 1-C, MF20 and ANP. […] Further, to study the optimum concentration of G-CSF, G-CSF was added at various concentrations (0.25, 0.75, 2.5, 7.5, 25, 75 ng/ml) to EBs at day 6, followed by RT-PCR to analyze the expression of each cardiomyocyte marker. It should be noted that EBs prepared at two cell densities, H ([…]) and L (5×10^4 cell/ml), were used in this test. […] To confirm a possibility that the promoting effect of G-CSF treatment to induce myocardial differentiation from ES cells would be mediated by the endogenous G-CSF signaling pathway, anti-G-CSF antibody (R&D systems) was added to medium simultaneously with G-CSF treatment and studied for its effect. EBs at day 6 were treated with G-CSF (7.5 ng/mL) in the presence of anti-G-CSF antibody at various concentrations (0, 1, 3, 9 ng/ml) to study the effect of anti-G-CSF antibody using various cardiomyocyte markers. […] To test the proliferation-promoting effect of G-CSF on ES cell-derived cardiomyocytes, EBs at day 6 were used to prepare G-CSF (7.5 ng/mL)-treated and untreated groups and a G-CSF+nocodazole (0.2 μg/mL)-treated group. […] These three groups were tested for various cardiomyocyte markers by RT-PCR.

cardiomyocyte markers [2] = assay: Cardiomyocyte marker expression in CMES cells (RT-PCR, immunostaining); type: cell-based, common marmoset; settings: for expression of cardiomyocyte markers (RT-PCR, FIG. 21b): CMES cells
Experimental: (§2) To test the effect of G-CSF on primate cardiogenesis, common marmoset ES (CMES) cells (#20) (Sasaki et al., Stem Cells 23, 1304-1313 (2005)) were used. CMES cells were maintained on a layer of mitotically inactivated mouse embryonic fibroblasts (MEFs) in Knockout DMEM (GIBCO) medium supplemented with 20% Knockout Serum Replacement (KSR; GIBCO), 1 mM L-glutamine (GIBCO), 0.1 mM MEM nonessential amino acids (GIBCO), 0.1 mM β-mercaptoethanol (2-ME; Sigma), 10 ng/ml fibroblast growth factor (bFGF; Invitrogen) and 10 ng/ml human leukemia inhibitory factor (hLIF; Alomone labs). CMES cells were passaged every 5 days to maintain their undifferentiated state.
(§3) Undifferentiated CMES cells were removed from the MEF feeder layer, dissociated into small colonies with a dissociation solution for human and monkey ES cells (ReproCELL. JAPAN), and then cultured to form EBs in suspension culture using HydroCell culture plates (CellSeed, JAPAN) in medium free from bFGF and hLIF.

fetal hearts = assay: Hematoxylin-eosin staining of fetal heart sections after G-CSF administration; type: in vivo, mouse; settings: G-CSF 100 ng/kg into uteri at 9.0 days of pregnancy; fetal hearts at 12.5 days
Experimental: (§4) At 9.0 days of pregnancy, mice were laparotomized and G-CSF (100 ng/kg) or PBS (phosphate-buffered physiological saline; serving as a control) was directly administered into their uteri. At 9.5 days of pregnancy, the mice were then administered with BrdU (bromodeoxyuridine) by the intraperitoneal route. BrdU is incorporated during DNA synthesis and allows proliferation assessment by immunostaining. At 12.5 days of pregnancy, fetuses were collected to prepare heart sections, which were then analyzed in the same manner as shown for immunostaining in Example 1(2).

ES cells = assay: Induction test of cardiomyocyte differentiation: autonomously beating EBs / total EBs; type: cell-based, mouse
Experimental: as §1
Namely, on gelatin-coated dishes, ES cells were maintained in an undifferentiated state in the presence of LIF, and suspension culture was started at day 0 in the absence of LIF to initiate differentiation of the ES cells, whereby EBs which had differentiated into cardiomyocytes were obtained at day 9. At days 5, 6, 7 and 8, G-CSF (2.5 ng/ml) was added and studied for its effect on EB formation. This effect was calculated by dividing the number of autonomously beating EBs by the total number of EBs.
Based on the above results, the optimum concentration of G-CSF was determined. The optimum concentration was studied by comparing the values calculated by dividing the number of autonomously beating EBs by the total number of EBs.

[3] = tested on: common marmoset ES (CMES) cells; assay: Spontaneous beating of common marmoset ES cell-derived EBs; type: cell-based; settings: G-CSF 2.5 ng/mL added at 4, 6 or 9 days after EB formation
Experimental: as §2, §3
At 4, 6 and 9 days after EB formation, G-CSF (2.5 ng/mL) was added to observe spontaneous beating. The best result was obtained upon addition at 6 days after EB formation, and the difference between G-CSF-treated and untreated groups became evident at 14 days after EB formation.

[4] = tested on: fetal myocardial proliferation; assay: In vivo effect of G-CSF on cardiogenesis: Phospho-Histon H3 immunostaining of fetal heart sections; set-up: species or system mouse
Experimental: G-CSF (2 ng) was directly administered into the uteri of pregnant mice at 9.0 days of pregnancy. At 13.5 days of pregnancy, fetuses were collected to prepare heart sections, which were then immunostained with Phospho-Histon H3. Phospho-Histon H3 is a dye that is specifically stained during the cell proliferation process.
Next, the labeling index was calculated by the following equation. Labeling index=Phospho-Histon H3 positive nuclei/total nuclei×100(%)

[5] = tested on: fetal myocardial proliferation; assay: In vivo effect of G-CSF on cardiogenesis: BrdU immunostaining of fetal heart sections; set-up: species or system mouse
Experimental: as §4
Moreover, for quantification of the myocardial proliferation-promoting effect, the BrdU labeling index was calculated by the following equation. It should be noted that wild-type mice were used in this test, which were administered with BrdU at 10.5 days of pregnancy and analyzed at 12.5 days of pregnancy. BrdU labeling index=BrdU positive nuclei/total nuclei×100(%)

[6] = tested on: ES cell-derived cardiomyocytes; assay: BrdU incorporation in ES cell-derived EBs (double immunostaining anti-BrdU / anti-mef2c); type: cell-based, mouse; settings: EBs at day 6, G-CSF 2.5 ng/mL, BrdU for 18 hours; vs untreated
Experimental: In addition, EBs at day 6 were used to prepare G-CSF (2.5 ng/mL)-treated and untreated groups, which were then incubated with BrdU for 18 hours.

Noggin
G-CSFR expression in EBs (immunostaining, FIG. 11) (G-CSFR expression; Noggin(+) group vs Noggin(−) group, EBs at 6 days after EB formation): G-CSFR expression is increased | start of G-CSFR expression in EBs (RT-PCR, FIG. 10) (G-CSFR expression; Noggin(+) group, 0.15 μg/ml Noggin for 3 days): 5 days after EB formation

Nc1ncn([C@@H]2O[C@H](CO)[C@@H](O)[C@H]2O)c(=O)n1 [5-azacytidine]
percentage of troponin I-positive cells (cardiomyocytes) in EBs (human ES cells): 44%

COC(=O)Nc1nc2ccc(C(=O)c3cccs3)cc2[nH]1 [Nocodazole, reference compound]
effect on G-CSF-increased expression of cardiomyocyte markers (RT-PCR, FIG. 19) (cardiomyocyte markers [1]; EBs at day 6, G-CSF 7.5 ng/mL + nocodazole 0.2 μg/mL): cancelled the increased expression of the cardiomyocyte markers

B1: G-CSF: hematopoietic factor, differentiation-inducing factor for granulocyte lineage hematopoietic stem cells; agonist for G-CSF receptor (protein, listed as Homo sapiens)
chain: TPLGPASSLPQSFLLKCLEQVRKIQGDGAALQEKLCATYKLCHPEELVLLGHSLGIPWAPLSSCPSQALQLAGCLSQLHSGLFLYQGLLQALEGISPELGPTLDTLQLDVADFATTIWQQMEELGMAPALQPTQGAMPAFASAFQRRAGGVLVASHLQSFLEVSYRVLRHLAQP
expression of cardiomyocyte markers (RT-PCR and immunostaining, FIG. 15) (cardiomyocyte markers [1]; EBs at day 9, G-CSF-treated group): all the cardiomyocyte markers showed increased expression levels | expression of contractile proteins, transcription factors and secretory proteins (RT-PCR, FIG. 16) (cardiomyocyte markers [1]; G-CSF 0.25 to 25 ng/ml added to EBs at day 6, cell densities H (2×10^3 cell/ml) and L (5×10^4 cell/ml), vs control group): increased expression levels | cardiac troponin I- and Nkx2.5-positive areas (immunostaining, FIG. 21c) (cardiomyocyte markers [2]; CMES-derived EBs, G-CSF-treated vs untreated): enhanced cardiac troponin I- and Nkx2.5-positive areas | heart section morphology (hematoxylin-eosin, FIG. 5a) (fetal hearts): extended trabecular layer | effect on EB formation (autonomously beating EBs / total EBs, FIG. 14) (ES cells; G-CSF 2.5 ng/ml added at days 5, 6, 7 or 8, result for addition at day 6): greatest effect on EB formation | optimum timing of G-CSF administration (ES cells; G-CSF 2.5 ng/ml, days 5, 6, 7 and 8 compared): 6 days | optimum concentration of G-CSF (autonomously beating EBs / total EBs, FIG. 17) (ES cells; added to EBs at day 6): 0.75 ng/mL | effect of G-CSF addition on cardiogenesis (spontaneous beating, FIG. 21a) [3]: highest at 6 days after EB formation | fetal myocardial proliferation (Phospho-Histon H3 immunostaining, FIG. 7) ([4]; G-CSF 2 ng into uteri at 9.0 days of pregnancy, fetuses collected at 13.5 days): enhance fetal myocardial proliferation | Phospho-Histon H3 labeling index (FIG. 8) ([4]; embryonic days 8.5 to 10.5): strongly enhance myocardial proliferation | fetal myocardial proliferation (BrdU immunostaining, FIG. 4) ([5]; G-CSF 100 ng/kg into uteri at 9.0 days of pregnancy, BrdU i.p. at 9.5 days, fetuses collected at 12.5 days, vs PBS): promoted fetal myocardial proliferation | BrdU labeling index (FIG. 6) ([5]; wild-type mice, BrdU at 10.5 days of pregnancy, analyzed at 12.5 days): enhance myocardial proliferation | cell proliferation of cardiomyocytes (BrdU labeling index, FIG. 20) [6]: promote cell proliferation of cardiomyocytes

B2: mouse G-CSF: G-CSF of mouse origin used on CMES cells (protein, UniProt P09920 31-208, looked up)
Granulocyte …: VPLVTVSALPPSLPLPRSFLLKSLEQVRKIQASGSVLLEQLCATYKLCHPEELVLLGHSLGIPKASLSGCSSQALQQTQCLSQLHSGLCLYQGLLQALSGISPALAPTLDLLQLDVANFATTIWQQMENLGVAPTVQPTQSAMPAFTSAFQRRAGGVLAISYLQGFLETARLALHHLA
expression of cardiomyocyte markers (RT-PCR, FIG. 21b) (cardiomyocyte markers [2]): strongly enhance the expression of the cardiomyocyte markers

B3: human G-CSF: G-CSF of human origin used on CMES cells (protein, UniProt P09919 31-207, looked up)
Granulocyte …: TPLGPASSLPQSFLLKCLEQVRKIQGDGAALQEKLVSECATYKLCHPEELVLLGHSLGIPWAPLSSCPSQALQLAGCLSQLHSGLFLYQGLLQALEGISPELGPTLDTLQLDVADFATTIWQQMEELGMAPALQPTQGAMPAFASAFQRRAGGVLVASHLQSFLEVSYRVLRHLAQP
expression of cardiomyocyte markers (RT-PCR, FIG. 21b) (cardiomyocyte markers [2]): strongly enhance the expression of the cardiomyocyte markers

From US8252583B2, “Method for inducing differentiation into cardiomyocytes using G-CSF” (Keiichi Fukuda, priority 2007, dated 2012)
